Assay results: article PMC2241919

T1: SFVmac PR-RT WT (simian foamy virus from macaque (SFVmac), UniProt P23074 1-751)
T1 sequence: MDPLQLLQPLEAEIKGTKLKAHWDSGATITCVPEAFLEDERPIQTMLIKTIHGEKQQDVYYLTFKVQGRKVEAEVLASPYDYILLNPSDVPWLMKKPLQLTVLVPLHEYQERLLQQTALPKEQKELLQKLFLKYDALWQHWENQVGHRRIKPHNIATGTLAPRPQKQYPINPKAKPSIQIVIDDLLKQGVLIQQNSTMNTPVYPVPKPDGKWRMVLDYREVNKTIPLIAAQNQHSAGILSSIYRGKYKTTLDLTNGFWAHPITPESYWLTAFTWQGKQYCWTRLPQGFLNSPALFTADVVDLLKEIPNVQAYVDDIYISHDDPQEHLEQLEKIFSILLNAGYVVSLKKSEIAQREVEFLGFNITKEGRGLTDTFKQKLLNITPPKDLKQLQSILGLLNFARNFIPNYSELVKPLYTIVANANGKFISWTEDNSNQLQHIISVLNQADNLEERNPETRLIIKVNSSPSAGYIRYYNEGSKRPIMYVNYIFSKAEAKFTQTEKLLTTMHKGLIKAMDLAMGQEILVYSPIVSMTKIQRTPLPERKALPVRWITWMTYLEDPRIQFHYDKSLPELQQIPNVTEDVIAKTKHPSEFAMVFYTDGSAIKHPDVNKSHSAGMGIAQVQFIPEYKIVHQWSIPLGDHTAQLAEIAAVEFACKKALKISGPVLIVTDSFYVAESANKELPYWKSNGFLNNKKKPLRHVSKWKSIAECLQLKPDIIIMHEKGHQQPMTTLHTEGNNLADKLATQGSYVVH

B1: 24/40-mer DNA/RNA P/T (DNA:RNA)
DNA: ATCACCAGGAGAGGGGAAAGCGGA
RNA: CUAAUUCCGCUUUCCCCUCUCCUGGUGAUCCUUUCCAUCC
B2: 24/40-mer DNA/DNA P/T (dsDNA)
DNA 1: ATCACCAGGAGAGGGGAAAGCGGA
DNA 2: CTAATTCCGCTTTCCCCTCTCCTGGTGATCCTTTCCATCC

Biological target: T1, SFVmac PR-RT WT
Experiment: fluorescence anisotropy

| Binder | Kd |
| --- | --- |
| B1 | 32.4 ± 4.2 nM |
| B2 | 36.4 ± 2.4 nM |
